Measurements reported in patent US20110262525A1, “METHODS OF TREATMENT” (SCHERING CORPORATION, priority 2006, published 2011).
Marks after values point to notes of the source that are not given here.

How the values were obtained:
[1] = system: NB-EBc1 xenograft (Neuroblastoma); assay: PPTP in vivo xenograft NB-EBc1; parameters: key to EFS activity notation (high, intermediate, indeterminate): high (!); intermediate (#); indeterminate (^)
Procedure: (§1) The PPTP includes a molecularly characterized in vitro panel of cell lines (n=27) and in vivo panel of xenografts (n=61) representing most of the common types of childhood solid tumors and childhood ALL (acute lymphoblastic leukemia). LCF/HCA anti-IGF1R antibody was tested against the PPTP in vitro panel at concentrations ranging from 0.01 nM to 100 nM; and was tested against the PPTP in vivo panel at a dose of 0.5 mg per mouse administered twice weekly for four weeks via intraperitoneal injection. Three measures of antitumor activity were used: 1) response criteria modeled after the clinical setting; 2) treated-to-control (T/C) tumor volume at day 21; and 3) a time to event (4-fold increase in tumor volume) measure based on the median EFS of treated and control lines (intermediate activity required EFS (event-free survival) T/C>2, and high activity additionally required a net reduction in median tumor volume at the end of the experiment).
(§2) Stage 1 testing involved testing an agent across the entire PPTP panel of childhood cancer xenograft lines at its maximum tolerated dose (MTD) or at a dose selected based on PK/PD (pharmacokinetic/pharmacodynamic) studies using adult preclinical models.
(§3) In vivo solid tumor testing: For each xenograft line, 10 mice bearing subcutaneous (SC) tumors initiated treatment when the tumors were between 0.2-0.5 cm^3 in volume. Two perpendicular tumor diameters were measured at once weekly intervals with digital vernier calipers. Assuming tumors to be spherical, volumes were calculated from the formula (π/6)×d3, where d represented the mean diameter.
(§4) Drug: LCF/HCA was dissolved in 20mM sodium acetate pH 5 buffer containing 150 mM sodium chloride, and administered intraperitoneally twice weekly for 4 consecutive weeks at a dose of 0.5 mg per animal. The antibody was provided to each testing site in coded vials for blinded testing according the PPTP's standard operating procedures.
(§5) Median Group Response: Each individual mouse in each treatment group was assigned a response score (see Tables above) and a median score for the treatment group was calculated and then each treatment group was assigned an overall response according to the table below.
(§6) Statistical Methods: Event-free survival (EFS) distributions of each treatment group were compared to the EFS distribution of the respective control group using the exact log rank test. P-values were 2-sided & were not adjusted for multiple comparisons given the exploratory nature of this study. P-values<0.05 were considered to be significant.

[2] = system: BT-28 xenograft (Medulloblastoma); assay: PPTP in vivo xenograft BT-28; settings: BT-28 (Medulloblastoma) xenograft, 0.5 mg per mouse ip twice weekly for four weeks
Procedure: as §1, §2, §3
(§7) Drug: LCF/HCA was dissolved in 20mM sodium acetate pH 5 buffer containing 150 mM sodium chloride, and administered intraperitoneally twice weekly for 4 consecutive weeks at a dose of 0.5 mg per animal. […]
(§8) Median Group Response: Each individual mouse in each treatment group was assigned a response score (see Tables above) and a median score for the treatment group was calculated and then each treatment group was assigned an overall response according to the table below. […]

[3] = system: D645 xenograft (Glioblastoma); assay: PPTP in vivo xenograft D645; parameters: key to EFS activity notation (high, intermediate, indeterminate): high (!); intermediate (#); indeterminate (^)
Procedure: as §1, §2, §3, §4, §5, §6

[4] = system: CHLA-79 xenograft (Neuroblastoma); assay: PPTP in vivo xenograft CHLA-79; parameters: key to EFS activity notation (high, intermediate, indeterminate): high (!); intermediate (#); indeterminate (^); settings: CHLA-79 (Neuroblastoma) xenograft, 0.5 mg per mouse ip twice weekly for four weeks
Procedure: as §1, §2, §3, §4, §5, §6

[5] = system: OS-31 xenograft (Osteosarcoma); assay: PPTP in vivo xenograft OS-31; settings: OS-31 (Osteosarcoma) xenograft, 0.5 mg per mouse ip twice weekly for four weeks
Procedure: as §1, §2, §3, §7, §8

TC-71 xenograft (Ewings) = assay: PPTP in vivo xenograft TC-71; settings: TC-71 (Ewings) xenograft, 0.5 mg per mouse ip twice weekly for four weeks
Procedure: as §1, §2, §3, §7, §8

[6] = system: CHLA258 xenograft (Ewings); assay: PPTP in vivo xenograft CHLA258; parameters: key to EFS activity notation (high, intermediate, indeterminate): high (!); intermediate (#); indeterminate (^)
Procedure: as §1, §2, §3, §4, §5, §6

[7] = system: BT-39 xenograft (Glioblastoma); assay: PPTP in vivo xenograft BT-39; settings: BT-39 (Glioblastoma) xenograft, 0.5 mg per mouse ip twice weekly for four weeks
Procedure: as §1, §2, §3, §7, §8

[8] = system: ALL-4 xenograft (ALL B-precursor); assay: PPTP in vivo leukemia xenograft ALL-4; settings: ALL-4 (ALL B-precursor) xenograft; 0.5 mg per mouse ip twice weekly for four weeks
Procedure: The PPTP includes a molecularly characterized in vitro panel of cell lines (n=27) and in vivo panel of xenografts (n=61) representing most of the common types of childhood solid tumors and childhood ALL (acute lymphoblastic leukemia). LCF/HCA anti-IGF1R antibody was tested against the PPTP in vitro panel at concentrations ranging from 0.01 nM to 100 nM; and was tested against the PPTP in vivo panel at a dose of 0.5 mg per mouse administered twice weekly for four weeks via intraperitoneal injection. […]
In vivo acute lymphoblastic leukemia testing: For each xenograft line, 8 mice were inoculated with 3-5×10^6 mononuclear cells purified from the spleens of secondary recipient mice. Engraftment was monitored weekly by flow cytometry, and treatment was initiated when the proportion of human CD45+ cells in the peripheral blood reached 1%. The proportion of human CD45+ cells in the peripheral blood was monitored weekly throughout the course of treatment. […]
as §8

[9] = system: OS-1 xenograft (Osteosarcoma); assay: PPTP in vivo xenograft OS-1; parameters: key to EFS activity notation (high, intermediate, indeterminate): high (!); intermediate (#); indeterminate (^); settings: OS-1 (Osteosarcoma) xenograft, 0.5 mg per mouse ip twice weekly for four weeks
Procedure: as §1, §2, §3, §7, §8

[10] = system: Rh18 xenograft (EMB Rhabdomyosarcoma); assay: PPTP in vivo xenograft Rh18
Procedure: as §1, §2, §3, §7, §8

[11] = 0.5 mg per mouse ip twice weekly for four weeks
[12] = day 21, 0.5 mg per mouse ip twice weekly for four weeks

B1: LCF/HCA: fully human anti-IGF1R antibody comprising the mature 19D12/15H12 light chain F (LCF) and mature heavy chain A (HCA) (antibody, V domains shown)
VH: EVQLVQSGGGLVHPGGSLRLSCAASGFTFSSFAMHWVRQAPGKGLEWISVIDTRGATYYADSVKGRFTISRDNAKNSLYLQMNSLRAEDMAVYYCARLGNFYYGMDVWGQGTTVTVSS
VL: EIVLTQVPDFQSVTPKEKVTITCRASQSIGSSLHWYQQKPDQSPKLLIKYASQSLSGVPSRFSGSGSGTDFTLTINSLEAEDAAAYYCHQSSRLPHTFGGGTKVEIKRT
- EFS T/C [1, 11]: > 2.0
- EFS activity notation (high, intermediate, indeterminate) [1, 11]: #
- Median Final RTV [1, 11]: 1.4#
- Overall Group Response [1, 11]: PD2 (1 < MS ≦ 3)
- Tumor Volume T/C [1, 12]: 0.8
- EFS T/C [2]: 1.2
- Median Final RTV [2]: >4
- Tumor Volume T/C ([2]; day 21): 1.18
- EFS T/C [3, 11]: 2.2
- EFS activity notation (high, intermediate, indeterminate) [3, 11]: #
- Median Final RTV [3, 11]: >4#
- Overall Group Response [3, 11]: PD2 (1 < MS ≦ 3)
- Tumor Volume T/C [3, 12]: 0.58
- EFS T/C [4]: 2.1
- EFS activity notation (high, intermediate, indeterminate) [4]: #
- Median Final RTV [4]: 3.9#
- Overall Group Response [4]: PD2 (1 < MS ≦ 3)
- Tumor Volume T/C ([4]; day 21): 0.69
- EFS T/C [5]: 1.3
- Median Final RTV [5]: >4
- Tumor Volume T/C ([5]; day 21): 0.88
- EFS T/C (TC-71 xenograft (Ewings)): 1.2
- Median Final RTV (TC-71 xenograft (Ewings)): >4
- Tumor Volume T/C (TC-71 xenograft (Ewings); day 21): 0.88
- EFS T/C [6, 11]: 4.2
- EFS activity notation (high, intermediate, indeterminate) [6, 11]: #
- Median Final RTV [6, 11]: >4#
- Overall Group Response [6, 11]: PD2 (1 < MS ≦ 3)
- Tumor Volume T/C [6, 12]: 0.29
- EFS T/C [7]: 1.1
- Median Final RTV [7]: >4
- Tumor Volume T/C ([7]; day 21): 0.87
- EFS T/C [8]: 0.8
- Median Final RTV [8]: >25
- EFS T/C [9]: > 1.3
- EFS activity notation (high, intermediate, indeterminate) [9]: ^
- Tumor Volume T/C ([9]; day 21): 0.16
- EFS T/C [10, 11]: 1
- Median Final RTV [10, 11]: >4
- Tumor Volume T/C [10, 12]: 0.74
